According to US10227387 (CHILDREN S HOSPITAL MEDICAL CENTER, dated 2019):

Target: LRP1 (full-length cDNA of LRP-1, Accession #NM_002332.2) overexpressed on cells (human, UniProt Q07954 20-4544)
Test: cell-based or functional assay

Chain of LRP1 (full-length cDNA of LRP-1, Accession #NM_002332.2) overexpressed on cells (Q07954 20-4544): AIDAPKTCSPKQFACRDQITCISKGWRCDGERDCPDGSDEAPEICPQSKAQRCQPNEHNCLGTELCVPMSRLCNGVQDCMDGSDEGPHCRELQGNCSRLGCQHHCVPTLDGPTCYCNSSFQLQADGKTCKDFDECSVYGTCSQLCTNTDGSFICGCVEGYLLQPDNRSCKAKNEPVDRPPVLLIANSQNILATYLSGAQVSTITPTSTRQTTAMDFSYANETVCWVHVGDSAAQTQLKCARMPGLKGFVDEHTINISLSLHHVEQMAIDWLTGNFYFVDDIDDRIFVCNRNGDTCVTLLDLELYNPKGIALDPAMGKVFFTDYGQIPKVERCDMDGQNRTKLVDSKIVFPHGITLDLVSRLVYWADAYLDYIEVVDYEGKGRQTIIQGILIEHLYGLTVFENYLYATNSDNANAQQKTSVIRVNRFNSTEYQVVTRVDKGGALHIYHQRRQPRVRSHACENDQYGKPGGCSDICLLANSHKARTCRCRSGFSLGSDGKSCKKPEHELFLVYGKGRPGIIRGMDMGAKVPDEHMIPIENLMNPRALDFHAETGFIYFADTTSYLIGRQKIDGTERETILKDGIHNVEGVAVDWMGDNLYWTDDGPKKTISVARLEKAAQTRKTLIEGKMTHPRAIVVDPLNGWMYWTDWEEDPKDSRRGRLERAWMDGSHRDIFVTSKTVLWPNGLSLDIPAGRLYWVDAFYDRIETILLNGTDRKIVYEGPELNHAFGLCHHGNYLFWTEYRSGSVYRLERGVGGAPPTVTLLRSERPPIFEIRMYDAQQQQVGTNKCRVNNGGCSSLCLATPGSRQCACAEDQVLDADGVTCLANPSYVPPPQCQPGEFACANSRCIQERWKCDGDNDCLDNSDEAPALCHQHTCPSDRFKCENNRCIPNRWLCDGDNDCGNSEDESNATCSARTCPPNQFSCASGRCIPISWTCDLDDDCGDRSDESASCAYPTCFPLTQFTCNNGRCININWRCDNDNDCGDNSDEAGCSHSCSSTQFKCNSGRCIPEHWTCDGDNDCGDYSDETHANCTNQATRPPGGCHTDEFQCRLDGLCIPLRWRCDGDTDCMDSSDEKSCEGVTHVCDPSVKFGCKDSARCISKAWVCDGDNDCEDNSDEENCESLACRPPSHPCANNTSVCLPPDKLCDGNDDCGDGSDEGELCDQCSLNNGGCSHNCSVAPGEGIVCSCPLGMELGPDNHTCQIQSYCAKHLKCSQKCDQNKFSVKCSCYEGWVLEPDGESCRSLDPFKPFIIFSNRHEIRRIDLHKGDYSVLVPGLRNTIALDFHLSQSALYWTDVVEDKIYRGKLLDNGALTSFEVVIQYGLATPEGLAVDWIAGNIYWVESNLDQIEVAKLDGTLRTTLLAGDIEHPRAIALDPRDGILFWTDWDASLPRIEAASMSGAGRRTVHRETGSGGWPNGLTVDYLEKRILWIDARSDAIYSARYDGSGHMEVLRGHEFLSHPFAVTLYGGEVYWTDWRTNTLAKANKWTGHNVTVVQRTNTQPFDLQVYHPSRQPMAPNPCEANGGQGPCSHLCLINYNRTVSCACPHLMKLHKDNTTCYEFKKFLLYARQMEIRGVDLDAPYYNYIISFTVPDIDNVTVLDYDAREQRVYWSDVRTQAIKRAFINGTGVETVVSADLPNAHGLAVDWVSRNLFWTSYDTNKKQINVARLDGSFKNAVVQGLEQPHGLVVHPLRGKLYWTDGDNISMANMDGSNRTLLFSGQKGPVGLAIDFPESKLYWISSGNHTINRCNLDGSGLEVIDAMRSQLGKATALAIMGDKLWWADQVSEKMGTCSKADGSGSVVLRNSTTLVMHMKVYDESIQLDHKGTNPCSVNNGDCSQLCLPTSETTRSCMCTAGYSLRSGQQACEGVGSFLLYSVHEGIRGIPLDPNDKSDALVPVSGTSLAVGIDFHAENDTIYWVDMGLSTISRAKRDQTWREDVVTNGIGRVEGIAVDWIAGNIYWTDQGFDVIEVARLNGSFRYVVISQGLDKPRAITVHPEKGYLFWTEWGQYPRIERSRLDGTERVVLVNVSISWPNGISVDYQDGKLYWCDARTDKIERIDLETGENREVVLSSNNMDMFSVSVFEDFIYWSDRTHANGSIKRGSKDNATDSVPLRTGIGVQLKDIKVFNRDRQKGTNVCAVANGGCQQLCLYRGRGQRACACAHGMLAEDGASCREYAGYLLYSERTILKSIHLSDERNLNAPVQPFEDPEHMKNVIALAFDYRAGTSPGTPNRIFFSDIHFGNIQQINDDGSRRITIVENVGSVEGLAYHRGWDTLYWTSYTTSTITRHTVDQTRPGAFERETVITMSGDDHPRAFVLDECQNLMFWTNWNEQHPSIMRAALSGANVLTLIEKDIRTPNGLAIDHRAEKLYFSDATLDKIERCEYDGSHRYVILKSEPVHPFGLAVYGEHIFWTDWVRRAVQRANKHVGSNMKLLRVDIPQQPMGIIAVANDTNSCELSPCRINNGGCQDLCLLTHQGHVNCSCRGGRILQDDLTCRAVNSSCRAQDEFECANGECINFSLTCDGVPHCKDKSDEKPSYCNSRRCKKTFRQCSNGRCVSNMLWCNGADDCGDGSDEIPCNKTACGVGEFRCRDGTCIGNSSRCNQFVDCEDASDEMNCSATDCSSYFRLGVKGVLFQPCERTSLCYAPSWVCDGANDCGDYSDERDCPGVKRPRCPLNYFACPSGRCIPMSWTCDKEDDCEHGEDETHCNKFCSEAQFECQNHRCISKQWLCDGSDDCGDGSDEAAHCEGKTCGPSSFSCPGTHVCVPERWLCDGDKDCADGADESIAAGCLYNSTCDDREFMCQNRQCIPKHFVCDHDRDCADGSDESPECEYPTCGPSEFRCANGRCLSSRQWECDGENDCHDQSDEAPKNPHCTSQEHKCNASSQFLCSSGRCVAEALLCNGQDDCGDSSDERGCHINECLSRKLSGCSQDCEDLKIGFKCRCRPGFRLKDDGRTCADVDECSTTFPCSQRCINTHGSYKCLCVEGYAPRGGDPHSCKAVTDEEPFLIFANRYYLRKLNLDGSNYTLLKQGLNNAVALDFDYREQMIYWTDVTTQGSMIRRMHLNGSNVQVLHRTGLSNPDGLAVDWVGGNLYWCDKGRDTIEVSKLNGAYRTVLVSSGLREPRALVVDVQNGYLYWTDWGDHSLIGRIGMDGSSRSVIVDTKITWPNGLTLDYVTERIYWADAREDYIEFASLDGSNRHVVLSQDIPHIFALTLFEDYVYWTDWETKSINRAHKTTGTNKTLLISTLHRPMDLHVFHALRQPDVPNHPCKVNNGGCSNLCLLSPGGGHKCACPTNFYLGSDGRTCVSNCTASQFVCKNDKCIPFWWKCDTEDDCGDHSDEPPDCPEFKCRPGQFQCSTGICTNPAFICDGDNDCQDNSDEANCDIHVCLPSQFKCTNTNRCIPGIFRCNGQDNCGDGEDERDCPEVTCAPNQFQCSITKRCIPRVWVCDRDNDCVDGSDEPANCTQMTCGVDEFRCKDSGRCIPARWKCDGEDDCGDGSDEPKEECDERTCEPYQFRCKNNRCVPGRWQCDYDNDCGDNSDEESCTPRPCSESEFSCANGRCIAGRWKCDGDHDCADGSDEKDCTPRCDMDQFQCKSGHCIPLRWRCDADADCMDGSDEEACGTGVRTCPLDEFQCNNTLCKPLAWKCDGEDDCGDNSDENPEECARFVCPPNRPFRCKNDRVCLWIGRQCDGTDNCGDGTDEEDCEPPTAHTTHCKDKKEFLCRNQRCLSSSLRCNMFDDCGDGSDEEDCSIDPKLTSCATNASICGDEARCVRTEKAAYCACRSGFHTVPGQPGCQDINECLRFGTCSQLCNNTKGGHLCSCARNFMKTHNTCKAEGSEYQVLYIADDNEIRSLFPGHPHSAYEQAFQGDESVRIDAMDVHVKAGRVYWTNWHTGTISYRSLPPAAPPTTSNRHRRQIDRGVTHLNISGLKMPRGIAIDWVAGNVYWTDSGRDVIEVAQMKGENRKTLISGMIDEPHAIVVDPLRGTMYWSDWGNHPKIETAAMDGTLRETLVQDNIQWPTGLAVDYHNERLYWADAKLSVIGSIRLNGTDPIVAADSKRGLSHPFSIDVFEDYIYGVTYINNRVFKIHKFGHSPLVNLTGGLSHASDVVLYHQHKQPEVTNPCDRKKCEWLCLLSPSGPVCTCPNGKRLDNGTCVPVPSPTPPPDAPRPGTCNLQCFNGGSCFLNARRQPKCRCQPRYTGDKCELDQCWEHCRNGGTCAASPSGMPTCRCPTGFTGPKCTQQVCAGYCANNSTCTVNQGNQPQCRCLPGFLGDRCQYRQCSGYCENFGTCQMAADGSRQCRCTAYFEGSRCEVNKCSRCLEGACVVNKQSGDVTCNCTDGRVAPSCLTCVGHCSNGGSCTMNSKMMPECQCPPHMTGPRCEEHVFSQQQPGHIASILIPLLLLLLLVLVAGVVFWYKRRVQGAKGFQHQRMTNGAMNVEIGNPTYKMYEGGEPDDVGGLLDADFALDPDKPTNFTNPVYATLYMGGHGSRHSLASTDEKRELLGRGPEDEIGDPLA

intracellular enzyme level in pause-chase uptake assay, CHO^LDLRneg-LRP1 cells, against unmodified IDUA: 2 fold
B1: IDUAe1 (enzyme)
chain: APHLVHVDAARALWPLRRFWRSTGFCPPLPHSQADQYVLSWDQQLNLAYVGAVPHRGIKQVRTHWLLELVTTRGSTGRGLSYNFTHLDGYLDLLRENQLLPGFELMGSASGHFTDFEDKQQVFEWKDLVSSLARRYIGRYGLAHVSKWNFETWNEPDHHDFDNVSMTMQGFLNYYDACSEGLRAASPALRLGGPGDSFHTPPRSPLSWGLLRHCHDGTNFFTGEAGVRLDYISLHRKGARSSISILEQEKVVAQQIRQLFPKFADTPIYNDEADPLVGWSLPQPWRADVTYAAMVVKVIAQHQNLLLANTTSAFPYALLSNDNAFLSYHPHPFAQRTLTARFQVNNTRPPHVQLLRKPVLTAMGLLALLDEEQLWAEVSQAGTVLDSNHTVGVLASAHRPQGPADAWRAAVLIYASDDTRAHPNRSVAVTLRLRGVPPGPGLVYVTRYLDNGLCSPDGEWRRLGRPVFPTAEQFRRMRAAEDPVAAAPRPLPAGGRLTLRPALRLPSLLLVHVCARPEKPPGQVTRLRALPLTQGQLVLVWSDEHVGSKCLWTYEIQFSQDGKAYTPVSRKPSTFNLFVFSPDTGAVSGSYRVRALDYWARPGPFSDPVPYLEVPVPRGPPSPGNPILKKATAYILLRKLRKRLLLRKLRKRLL
